Results taken from patent publication US20230203124A1.

What was measured:
[1] = target: mutated ALK 25-AA long peptide on autologous B cells (HLA-DQB1*0601) (human)
[2] = target: mutated ERBB2IP 25-AA long peptide presented by HLA-DQB1*0601 (human)
[3] = target: wild-type ERBB2IP 25-AA long peptide on autologous B cells (HLA-DQB1*0601) (human)

% IFN-γ+/mTCRβ- cells, intracellular IFN-γ by flow cytometry [1]: 1%
% IFN-γ+/mTCRβ- cells, intracellular IFN-γ by flow cytometry [2]: 0%
% IFN-γ+/mTCRβ- cells, intracellular IFN-γ by flow cytometry [3]: 0%
Substance: Mock-transduced autologous open-repertoire peripheral blood T cells (cells without a defined receptor)
